Values of other authors, collected in patent publication US20250341526A1, “NOVEL DYES” (Quantum-Si Incorporated, priority 2024, published 2025).
Changes are numbered by the printed parent chain. Names may count otherwise. Like-named read-outs stand apart in the source and are kept apart here.

B1: Saccharomyces cerevisiae GID10: amino acid recognition protein, SEQ ID NO: 125 (protein, listed as Saccharomyces cerevisiae)
chain: MTSLNIMGRKFILERAKRNDNIEEIYTSAYVSLPSSTDTRLPHFKAKEEDCDVYEEGTNLVGKNAKYTYRSLGRHLDFLRPGLRFGGSQSSKYTYYTVEVKIDTVNLPLYKDSRSLDPHVTGTFTIKNLTPVLDKVVTLFEGYVINYNQFPLCSLHWPAEETLDPYMAQRESDCSHWKRFGHFGSDNWSLTERNFGQYNHESAEFMNQRYIYLKWKERFLLDDEEQENQMLDDNHHLEGASFEGFYYVCLDQLTGSVEGYYYHPACELFQKLELVPTNCDALNTYSSGFEIA
B2: PS504: amino acid recognition protein, SEQ ID NO: 132 (protein, listed as Galleria mellonella)
chain: MLCGKVFKQGEPAYSCRECGMDNTCVLCVECFKVSPHRHHKYKMGQSGGGGCCDCGDTEAWKRDPFCERHAK
B3: PS392: ClpS amino acid recognition protein, SEQ ID NO: 20 (protein)
chain: MSVEIIEKRSTVRKLAPRYRVLLHNDDFNPMEYVVQTLMATVPSLTQPQAVNVMMEAHTNGMGLVIVCALEHAEFYAETLNNHGLGSSIEPDD
B4: Synechococcus elongatus ClpS2: ClpS amino acid recognition protein, SEQ ID NO: 106 (protein, listed as Synechococcus elongatus)
chain: MSPQPDESVLSILGVPRPCVKKRSRNDAFVLTVLTCSLQAIAAPATAPGTTTTRVRQPYPHFRVIVLDDDVNTFQHVAECLLKYIPGMTGDRAWDLTNQVHYEGAATVWSGPQEQAELYHEQLRREGLTMAPLEAA
B5: Plasmodium falciparum ClpS: ClpS amino acid recognition protein, SEQ ID NO: 110 (protein, listed as Plasmodium falciparum)
chain: MFKDLKPFFLCIILLLLLIYKCTHSYNIKNKNCPLNFMNSCVRINNVNKNTNISFPKELQKRPSLVYSQKNFNLEKIKKLRNVIKEIKKDNIKEADEHEKKEREKETSAWKVILYNDDIHNFTYVTDVIVKVVGQISKAKAHTITVEAHSTGQALILSTWKSKAEKYCQELQQNGLTVSIIHESQLKDKQKK
B6: PS394: ClpS amino acid recognition protein, SEQ ID NO: 22 (protein)
chain: MAERRDTGDDEGTGLGIATKTRSKTKKPTPYRVLMLNDDYTPMEFVVLCLQRFFRMNMEEATRVMLHVHQKGVGVCGVFSYEVAETKVGQVIDFARANQHPLQCTLEKA
B7: Escherichia coli ClpS: ClpS amino acid recognition protein, SEQ ID NO: 108 (protein, listed as Escherichia coli)
chain: MGKTNDWLDFDQLAEEKVRDALKPPSMYKVILVNDDYTPMEFVIDVLQKFFSYDVERATQLMLAVHYQGKAICGVFTAEVAETKVAMVNKYARENEHPLLCTLEKA
B8: Escherichia coli ClpS M40A: ClpS amino acid recognition protein, SEQ ID NO: 109 (protein, listed as Escherichia coli)
chain: B7 chain with M40A
B9: PS502: amino acid recognition protein, SEQ ID NO: 130 (protein, listed as Helobdella robusta)
chain: MVCLKVFKLGEPTYSCRSVTCGMDPTCVLCVDCFQNSSHKLHKYKMSTSGGGGYCDCGDLEAWKADPLCDLHKL
B10: PS393: ClpS amino acid recognition protein, SEQ ID NO: 21 (protein)
chain: MSDEDGEDGDENAVGIATRTRTRTKKPTPYRVLLLNDDYTPMEFVVLVLQRFFRMSIEDATRVMLQVHQKGVGVCGVFTYEVAETKVSQVIDFARQNQHPLQCTLEKA
B11: PS505: amino acid recognition protein, SEQ ID NO: 133 (protein, listed as Brachionus plicatilis)
chain: MVCGRVFKSGEPSYFCRECGTDPTCVLCSICFRHSKHRYHKYVMMTSGGGGYCDCGDPEAWKSDPCCELHMP
B12: PS382: ClpS amino acid recognition protein, SEQ ID NO: 15 (protein)
chain: MSDSPVIKEIKKDNIKEADEHEKKEREKETSAWKVILYNDDIHNFTYVTDVIVKVVGQISKAKAHTITVEAHSTGQALILSTWKSKAEKYCQELQQNGLTVSIIHESQLKDKQKK
B13: PS395: ClpS amino acid recognition protein, SEQ ID NO: 23 (protein)
chain: MTVSQSKTQGAPAAQSATELEYEGLWRVVVLNDPVNLMSYVVLVFKKVFGFDETTARKHMLEVHEQGRSVVWSGMREKAEAYAFTLQQWHLTTVLEQDEVR
B14: PS501: amino acid recognition protein, SEQ ID NO: 129 (protein, listed as Amanita thiersii)
chain: MICGQIIGKGESCFRCRDCGLDESCVMCSQCFHATDHINHNVSFFVSQQPGGCCDCGDEEAWKKPMNCPYHPP
B15: Synechococcus elongatus ClpS1: ClpS amino acid recognition protein, SEQ ID NO: 105 (protein, listed as Synechococcus elongatus)
chain: MAVETIQKPETTTKRKIAPRYRVLLHNDDFNPMEYVVMVLMQTVPSLTQPQAVDIMMEAHTNGTGLVITCDIEPAEFYCEQLKSHGLSSSIEPDD
B16: PS503: amino acid recognition protein, SEQ ID NO: 131 (protein, listed as Hydra vulgaris)
chain: MFCGRLFKVGDPTYTCKDCAADPTCVFCHDCFHQSVHTKHKYKLFASQGRGGYCDCGDKEAWTNDPACNKHKE
B17: PS388: ClpS amino acid recognition protein, SEQ ID NO: 16 (protein)
chain: MVTTLSADVYGMATAPTVAPERSNQVVRKTYPNYKVIVLNDDFNTFQHVAECLMKYIPGMSSDRAWDLTNQVHYEGQAIVWVGPQEPAELYHQQLRRAGLTMAPLEAA
B18: Thermosynechococcus elongatus ClpS: ClpS amino acid recognition protein, SEQ ID NO: 107 (protein, listed as Thermosynechococcus elongatus)
chain: MPQERQQVTRKHYPNYKVIVLNDDFNTFQHVAACLMKYIPNMTSDRAWELTNQVHYEGQAIVWVGPQEQAELYHEQLLRAGLTMAPLEPE
B19: PS506: amino acid recognition protein, SEQ ID NO: 134 (protein, listed as Capitella teleta)
chain: MLCGKVFKMGELTYSCRDCGTDPTCVLCMDCFQHSAHKKHRYKMAASGGGGYCDCGDREAWKAEPFCDVHKR
B20: PS389: ClpS amino acid recognition protein, SEQ ID NO: 17 (protein)
chain: MLNSAAFKAASASPVIAPERSGQVTQKPYPTYKVIVLNDDFNTFQHVHDCLVKYIPGMTSDRAWQLTHQVHNDGQAIVWVGPQEQAELYHQQLSRAGLTMAPIEAA
B21: PS390: ClpS amino acid recognition protein, SEQ ID NO: 18 (protein)
chain: MLSIAAVTEAPSKGVQTADPKTVRKPYPNYKVIVLNDDFNTFQHVSSCLLKYIPGMSEARAWELTNQVHFEGLAVVWVGPQEQAELYYAQLKNAGLTMAPPEPA
B22: atClpS1 C7S: ClpS amino acid recognition protein, SEQ ID NO: 103 (protein)
chain: MIAEPISMQGEGDGEDGGTNRGTSVITRVKPKTKRPNLYRVLLLNDDYTPMEFVIHILERFFQKDREAATRIMLHVHQHGVGECGVFTYEVAETKVSQVMDFARQHQHPLQCVMEKK
B23: atClpS1 C7S, C84S, C112S: ClpS amino acid recognition protein, SEQ ID NO: 104 (protein)
chain: B22 chain with C84S, C112S
B24: PS368: ClpS amino acid recognition protein, SEQ ID NO: 1 (protein)
chain: MASAPSTTLDKSTQVVKKTYPNYKVIVLNDDLNTFDHVANCLIKYIPDMTTDRAWELTNQVHYQGQAIVWTGPQEQAELYHQQLRREGLTMAPLEAA
B25: PS380: ClpS amino acid recognition protein, SEQ ID NO: 13 (protein)
chain: MGDIYGESNPEEVSCIDSLSEEGNELILFNDNIHTFEYVIDCLVAICSLSYEQASNCAYIVDRKGLCTVKHGSYDELLIMYHALVEKDLKVEIR
B26: PS391: ClpS amino acid recognition protein, SEQ ID NO: 19 (protein)
chain: MGQTVEKPRVEGPGTGLGGSWRVIVRNDDHNTFDHVARTLARFIPGVSLERGHEIAKVIHTTGRAVVYTGHKEAAEHYWQQLKGAGLTMAPLEQG

Tested on: amino acid at a terminal position of a polypeptide
Conditions: inferred from literature and/or demonstrated by the inventors, cited from earlier work
[1] = Table 2, amino acid at terminal position (phosphotyrosine also internal)
[2] = Table 1, ClpS proteins, amino acid at terminal position

| Molecule | Binding Pref. [1] | Binding Pref. [2] |
| --- | --- | --- |
| B1 | P, M, V |  |
| B2 | K, R, H |  |
| B3 |  | F, Y, W |
| B4 |  | F, W, Y, L |
| B5 |  | F, W, Y, L |
| B6 |  | F, Y, W, L |
| B7 |  | F, W, Y, L |
| B8 |  | F, W, Y, L |
| B9 | K, R, H |  |
| B10 |  | F, Y, W, L |
| B11 | K, R, H |  |
| B12 |  | F, Y, W, L |
| B13 |  | F, Y, W, L |
| B14 | K, R, H |  |
| B15 |  | F, W, Y |
| B16 | K, R, H |  |
| B17 |  | F, Y, L |
| B18 |  | F, W, Y, L |
| B19 | K, R, H |  |
| B20 |  | F, Y, L |
| B21 |  | F, Y, L |
| B22 |  | F, W, Y, L |
| B23 |  | F, W, Y, L |
| B24 |  | F, Y, W, L |
| B25 |  | F, W |
| B26 |  | F, Y, W, L |
